In general, Kd refers to a measure of binding affinity in units of concentration. Higher therefore signals lower affinity.

These results are taken from patent USRE40850E1.

“And” between values parts separate entries of the source, which are not always exact repeats. Equal entries are not always repeated.

The target in assay [1] is PTH receptor present on the SaOS-2 (human osteosarcoma cells) (human (SaOS-2 human osteosarcoma cells)) (UniProt Q03431).
The target is the same in assay [2]. Briefly: displacement of mono-125I-[Nle8,18,Tyr34(3-125I)]bPTH(1-34)NH2 from SaOS-2 cells; Kd defined as half maximal inhibition.

“[Cha^7,11, Aib^19]hPTH(1-34)NH2 (from UniProt P01270) (peptide)” gave an EC50 (half maximal stimulation of adenylate cyclase, cAMP synthesis in SaOS-2 cells) in assay [1] of 0.5 nM. In assay [2], this substance gave a dissociation constant Kd of 7 nM.

As to “[Aib^17]hPTH(1-34)NH2 (from UniProt P01270) (peptide)”, in assay [1], the EC50 (half maximal stimulation of adenylate cyclase, cAMP synthesis in SaOS-2 cells) was 2 nM and 3 nM. Further, the equilibrium dissociation constant (Kd) in assay [2] is 5 nM and 50 nM.

“[Cha^7,11, Nle^8,18, Tyr^34]hPTH(1-34)NH2 (from UniProt P01270) (peptide)”: in assay [1], the EC50 (half maximal stimulation of adenylate cyclase, cAMP synthesis in SaOS-2 cells) was determined as 0.6 nM. The substance also had a Kd in assay [2] of 6 nM.

For the substance “[Cha^15]hPTH(1-34)NH2 (from UniProt P01270) (peptide)”, the EC50 (half maximal stimulation of adenylate cyclase, cAMP synthesis in SaOS-2 cells) in assay [1] turned out to be 1.3 nM. Moreover, in assay [2], the Kd turned out to be 5 nM.

For the substance “[Cha^28]hPTH(1-34)NH2 (from UniProt P01270) (peptide)”, the EC50 (half maximal stimulation of adenylate cyclase, cAMP synthesis in SaOS-2 cells) in assay [1] came to 2.5 nM. In assay [2], this substance came in with a dissociation constant Kd of 50 nM.

As for “[Cha^24,28,31]hPTH(1-34)NH2 (from UniProt P01270) (peptide)”, the EC50 (half maximal stimulation of adenylate cyclase, cAMP synthesis in SaOS-2 cells) in assay [1] was found to be 30 nM. Besides, the equilibrium dissociation constant (Kd) in assay [2] was 1000 nM.

With “[hArg^27]hPTH(1-34)NH2 (from UniProt P01270) (peptide)”, in assay [1], the EC50 (half maximal stimulation of adenylate cyclase, cAMP synthesis in SaOS-2 cells) was found to be 1 nM. The dissociation constant Kd in assay [2] is 7 nM.

“[Dap^1, Nle^8,18, Tyr^34]hPTH(1-34)NH2 (from UniProt P01270) (peptide)” displayed an EC50 (half maximal stimulation of adenylate cyclase, cAMP synthesis in SaOS-2 cells) in assay [1] of 10 nM. Further, the Kd in assay [2] came out at 150 nM.

Substance “[Cha^24,28,31, Lys^30]hPTH(1-34)NH2 (from UniProt P01270) (peptide)” had an EC50 (half maximal stimulation of adenylate cyclase, cAMP synthesis in SaOS-2 cells) in assay [1] of 7 nM. In assay [2], this substance had an equilibrium dissociation constant (Kd) of 500 nM.

In assay [1], “[Aib^16,19]hPTH(1-34)NH2 (from UniProt P01270) (peptide)” gave an EC50 (half maximal stimulation of adenylate cyclase, cAMP synthesis in SaOS-2 cells) of 0.6 nM. In assay [2], this substance yielded a dissociation constant Kd of 4 nM.

For the substance “[Aib^34]hPTH(1-34)NH2 (from UniProt P01270) (peptide)”, in assay [1], the EC50 (half maximal stimulation of adenylate cyclase, cAMP synthesis in SaOS-2 cells) was 3 nM. The substance further had a Kd in assay [2] of 7 nM.

With “[Cha^31]hPTH(1-34)NH2 (from UniProt P01270) (peptide)”, in assay [1], the EC50 (half maximal stimulation of adenylate cyclase, cAMP synthesis in SaOS-2 cells) came out at 4 nM. The Kd in assay [2] was found to be 30 nM.

“[Cha^11]hPTH(1-34)NH2 (from UniProt P01270) (peptide)” showed an EC50 (half maximal stimulation of adenylate cyclase, cAMP synthesis in SaOS-2 cells) in assay [1] of 2 nM. In assay [2], the dissociation constant Kd amounted to 5 nM.

Turning to “[Cha^23]hPTH(1-34)NH2 (from UniProt P01270) (peptide)”, in assay [1], the EC50 (half maximal stimulation of adenylate cyclase, cAMP synthesis in SaOS-2 cells) was 20 nM. Also, the Kd in assay [2] was 200 nM.

“[Cha^7,11, Aib^16]hPTH(1-34)NH2 (from UniProt P01270) (peptide)” showed an EC50 (half maximal stimulation of adenylate cyclase, cAMP synthesis in SaOS-2 cells) in assay [1] of 1.1 nM. For the same substance, the Kd in assay [2] stood at 4 nM.

The substance “[Nle^31]hPTH(1-34)NH2 (from UniProt P01270) (peptide)” returned an EC50 (half maximal stimulation of adenylate cyclase, cAMP synthesis in SaOS-2 cells) in assay [1] of 0.7 nM. Also, the Kd in assay [2] came out at 4 nM.

Substance “[Cha^24]hPTH(1-34)NH2 (from UniProt P01270) (peptide)” registered an EC50 (half maximal stimulation of adenylate cyclase, cAMP synthesis in SaOS-2 cells) in assay [1] of 10 nM. For the same substance, the dissociation constant (Kd) in assay [2] came out at 100 nM.

In assay [1], “[Cha^28,31]hPTH(1-34)NH2 (from UniProt P01270) (peptide)” registered an EC50 (half maximal stimulation of adenylate cyclase, cAMP synthesis in SaOS-2 cells) of 7 nM. In assay [2], the Kd is 60 nM.

Regarding “[Cha^7,11]hPTH(1-34)NH2 (from UniProt P01270) (peptide)”, the EC50 (half maximal stimulation of adenylate cyclase, cAMP synthesis in SaOS-2 cells) in assay [1] is 0.6 nM. Also, in assay [2], the Kd came to 10 nM.

Substance “[Nle^8,18, Cha^27]hPTH(1-34)NH2 (from UniProt P01270) (peptide)” returned an EC50 (half maximal stimulation of adenylate cyclase, cAMP synthesis in SaOS-2 cells) in assay [1] of 2 nM. The substance also yielded a Kd in assay [2] of 50 nM.

Turning to “[Cha^7,11, Nle^8,18,31, Aib^34]hPTH(1-34)NH2 (from UniProt P01270) (peptide)”, in assay [1], the EC50 (half maximal stimulation of adenylate cyclase, cAMP synthesis in SaOS-2 cells) is 1.5 nM. In assay [2], this substance registered a Kd of 30 nM.

Turning to “[Aib^19]hPTH(1-34)NH2 (from UniProt P01270) (peptide)”, the EC50 (half maximal stimulation of adenylate cyclase, cAMP synthesis in SaOS-2 cells) in assay [1] stood at 0.6 nM. Moreover, in assay [2], the dissociation constant Kd amounted to 5 nM.

Turning to “[Cha^7,11, Nle^8,18, Aib^16,19, Tyr^34]hPTH(1-34)NH2 (from UniProt P01270) (peptide)”, the EC50 (half maximal stimulation of adenylate cyclase, cAMP synthesis in SaOS-2 cells) in assay [1] was 1.5 nM. Besides, the Kd in assay [2] was 5 nM.

In the case of “[Cha^7]hPTH(1-34)NH2 (from UniProt P01270) (peptide)”, in assay [1], the EC50 (half maximal stimulation of adenylate cyclase, cAMP synthesis in SaOS-2 cells) is 2.3 nM. The Kd in assay [2] was determined as 20 nM.

Substance “[Cha^7,11, Nle^8,18,31, Aib^16,19, Tyr^34]hPTH(1-34)NH2 (from UniProt P01270) (peptide)” returned an EC50 (half maximal stimulation of adenylate cyclase, cAMP synthesis in SaOS-2 cells) in assay [1] of 4 nM. For the same substance, the dissociation constant (Kd) in assay [2] stood at 40 nM.

Substance “[Cha^7,11, Aib^19, Lys^30]hPTH(1-34)NH2 (from UniProt P01270) (peptide)” gave an EC50 (half maximal stimulation of adenylate cyclase, cAMP synthesis in SaOS-2 cells) in assay [1] of 2 nM. Besides, in assay [2], the Kd came to 4 nM.

In assay [1], “[Aib^3]hPTH(1-34)NH2 (from UniProt P01270) (peptide)” had an EC50 (half maximal stimulation of adenylate cyclase, cAMP synthesis in SaOS-2 cells) of 1.1 nM. In assay [2], this substance displayed a Kd of 4 nM.

Turning to “[Aib^10]hPTH(1-34)NH2 (from UniProt P01270) (peptide)”, in assay [1], the EC50 (half maximal stimulation of adenylate cyclase, cAMP synthesis in SaOS-2 cells) is 0.7 nM. Moreover, the dissociation constant Kd in assay [2] amounted to 4 nM.

In assay [1], “[Cha^7,11,15]hPTH(1-34)NH2 (from UniProt P01270) (peptide)” displayed an EC50 (half maximal stimulation of adenylate cyclase, cAMP synthesis in SaOS-2 cells) of 1.4 nM. The substance further returned a Kd in assay [2] of 10 nM.
